Like-named read-outs stand apart in the source and are kept apart here.
B1: Probe Am (mutant G-boxes) (dsDNA)
DNA 1: TGATCTGACTTTAAACCGGTGACTTTCGCC
DNA 2: GGCGAAAGTCACCGGTTTAAAGTCAGATCA
B2: Probe Bm (mutant G-box) (dsDNA)
DNA 1: ATTTTCCTGACTTCACTATGACTTGTT
DNA 2: AACAAGTCATAGTGAAGTCAGGAAAAT

Tests used:
[1] = biological target: T1, OsPIL15 (Oryza sativa, UniProt Q0JNI9 1-637); experiment: competition
T1 sequence: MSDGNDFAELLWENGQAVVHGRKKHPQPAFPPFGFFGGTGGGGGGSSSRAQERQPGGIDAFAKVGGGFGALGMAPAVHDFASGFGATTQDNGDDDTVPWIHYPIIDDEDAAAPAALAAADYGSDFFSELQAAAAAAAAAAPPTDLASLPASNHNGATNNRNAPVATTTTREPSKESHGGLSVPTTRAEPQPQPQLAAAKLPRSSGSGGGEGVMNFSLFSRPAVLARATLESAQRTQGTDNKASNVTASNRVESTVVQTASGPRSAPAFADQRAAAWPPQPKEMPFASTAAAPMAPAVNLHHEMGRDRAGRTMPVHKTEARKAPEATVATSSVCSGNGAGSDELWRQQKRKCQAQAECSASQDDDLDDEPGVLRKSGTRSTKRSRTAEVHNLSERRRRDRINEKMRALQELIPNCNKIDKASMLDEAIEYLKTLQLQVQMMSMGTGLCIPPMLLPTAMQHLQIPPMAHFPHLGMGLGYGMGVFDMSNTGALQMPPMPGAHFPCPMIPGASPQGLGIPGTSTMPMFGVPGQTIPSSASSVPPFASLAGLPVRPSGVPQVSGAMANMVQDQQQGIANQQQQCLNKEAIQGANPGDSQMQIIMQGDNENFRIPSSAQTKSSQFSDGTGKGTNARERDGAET

[2] = biological target: T1, OsPIL15; experiment: competition; remark: listed apart in the source

| Binder | binding result [1] | binding result [2] |
| --- | --- | --- |
| B1 | no binding | – |
| B2 | – | no binding |

Source: PMC7187366
